# Where a chain is given by its changes, count along the chain named. Names may count otherwise.
# T1: β1,4-galactosyltransferase B4GalT-I, P15291
# T1 chain: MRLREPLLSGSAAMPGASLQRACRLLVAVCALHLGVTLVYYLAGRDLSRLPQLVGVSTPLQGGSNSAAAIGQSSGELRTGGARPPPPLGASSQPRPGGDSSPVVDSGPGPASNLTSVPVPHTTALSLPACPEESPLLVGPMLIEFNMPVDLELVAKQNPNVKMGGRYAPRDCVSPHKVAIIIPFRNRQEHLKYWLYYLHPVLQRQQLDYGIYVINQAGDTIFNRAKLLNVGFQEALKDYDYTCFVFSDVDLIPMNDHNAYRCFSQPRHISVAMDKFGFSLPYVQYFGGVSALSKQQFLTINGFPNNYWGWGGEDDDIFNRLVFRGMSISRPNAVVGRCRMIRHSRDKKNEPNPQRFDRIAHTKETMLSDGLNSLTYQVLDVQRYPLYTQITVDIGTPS
# T2: ST6Gal-I cysteine mutant C406A, P15907
# T2 chain: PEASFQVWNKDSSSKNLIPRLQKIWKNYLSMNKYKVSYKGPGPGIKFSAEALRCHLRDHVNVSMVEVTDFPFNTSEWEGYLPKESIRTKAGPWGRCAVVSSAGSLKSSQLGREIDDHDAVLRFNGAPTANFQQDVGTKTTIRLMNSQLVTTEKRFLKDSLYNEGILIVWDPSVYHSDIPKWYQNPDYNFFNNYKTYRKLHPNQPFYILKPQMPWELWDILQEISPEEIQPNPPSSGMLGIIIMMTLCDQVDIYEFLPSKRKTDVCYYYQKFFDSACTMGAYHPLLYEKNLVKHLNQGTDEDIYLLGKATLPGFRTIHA
# T3: ST6Gal-I cysteine mutant C353A, P15907
# T3 chain: T2 chain with C265A, A318C
# B1: α-2,6-sialyltransferase ST6Gal-I, wild type, P15907 C406A (protein)
# chain: T2 chain
# B2: α-2,6-sialyltransferase ST6Gal-I, wild type, P15907 C353A (protein)
# chain: T2 chain with C265A, A318C
# Legend:
# [1] = target: ST6Gal-I cysteine mutant C24S (UniProt P15907); assay: FRET in cells (homomer assembly); details: n = 3, 15,000 cells each; parent: est. 100; read off a plot
# [2] = target: β1,4-galactosyltransferase B4GalT-I (UniProt P15291); assay: FRET in cells (heteromer assembly); details: n = 3, 15,000 cells each; parent: est. 100; read off a plot
# [3] = target: T1, β1,4-galactosyltransferase B4GalT-I, …; assay: FRET in cells (heteromer assembly); details: chain shown with the change; n = 3, 15,000 cells each; parent: est. 100; read off a plot
# [4] = target: T2, ST6Gal-I cysteine mutant C406A, P15907; assay: FRET in cells (homomer assembly); details: chain shown with the change; n = 3, 15,000 cells each; parent: est. 100; read off a plot
# [5] = target: T3, ST6Gal-I cysteine mutant C353A, P15907; assay: FRET in cells (homomer assembly); details: chain shown with the change; n = 3, 15,000 cells each; parent: est. 100; read off a plot
molecule,measurement,setting,value
"α-2,6-sialyltransferase ST6Gal-I, wild type (from UniProt P15907) C24S",percent of parent (% of WT control),[1],70
same,percent of parent (% of WT control),[2],97
B1,percent of parent (% of WT control),[3],84
same,percent of parent (% of WT control),[4],60
B2,percent of parent (% of WT control),[5],83
